Holding throughout (assay): fluorescence polarisation; 25 °C; unlabeled Rb^P titrated against 1.5 nM TMR-E2F1^TD or 7.5 nM TMR-E7^LxCxE; 25 mM Tris pH 8.0, 200 mM NaCl, 1 mM DTT, 0.1% Tween-20; 2 min incubation; quadratic fit; apparent Kd for the variants, Kd for WT
Common to all, as to conditions: both partners purified
(Fluorescence polarisation rises when a labelled molecule tumbles more slowly, as on binding a larger partner.)

Assay [1] addresses T1, Rb^P E533K (human, UniProt P06400 380-788, E533K).
T1 construct: also called variant 22
T1 sequence (looked up): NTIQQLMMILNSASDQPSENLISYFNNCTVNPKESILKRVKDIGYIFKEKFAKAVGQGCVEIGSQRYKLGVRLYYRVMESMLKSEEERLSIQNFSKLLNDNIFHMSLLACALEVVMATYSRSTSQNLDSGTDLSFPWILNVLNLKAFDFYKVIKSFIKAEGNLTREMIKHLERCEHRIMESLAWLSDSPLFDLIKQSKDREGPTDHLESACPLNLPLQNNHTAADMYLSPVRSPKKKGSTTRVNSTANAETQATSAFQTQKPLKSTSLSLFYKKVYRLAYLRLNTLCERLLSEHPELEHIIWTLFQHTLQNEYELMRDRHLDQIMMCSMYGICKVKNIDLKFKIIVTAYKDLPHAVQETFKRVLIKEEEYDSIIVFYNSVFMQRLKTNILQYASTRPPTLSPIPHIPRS

Assay [2] deals with T2, Rb^P H585Y (human, UniProt P06400 380-788, H585Y).
T2 construct: also called variant 33
T2 sequence (looked up): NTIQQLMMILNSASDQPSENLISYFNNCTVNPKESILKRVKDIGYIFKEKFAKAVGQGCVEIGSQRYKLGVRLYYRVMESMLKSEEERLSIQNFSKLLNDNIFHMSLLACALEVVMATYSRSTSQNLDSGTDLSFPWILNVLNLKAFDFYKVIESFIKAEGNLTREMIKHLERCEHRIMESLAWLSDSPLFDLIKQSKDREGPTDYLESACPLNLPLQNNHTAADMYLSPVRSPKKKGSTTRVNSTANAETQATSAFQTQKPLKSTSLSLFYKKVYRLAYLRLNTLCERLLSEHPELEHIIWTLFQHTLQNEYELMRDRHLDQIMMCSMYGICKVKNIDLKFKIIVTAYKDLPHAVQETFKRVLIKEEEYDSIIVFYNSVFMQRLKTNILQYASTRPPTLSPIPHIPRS

The target of assay [3] is T3, Rb^P H673P (human, UniProt P06400 380-788, H673P).
T3 construct: also called variant 54
T3 sequence (looked up): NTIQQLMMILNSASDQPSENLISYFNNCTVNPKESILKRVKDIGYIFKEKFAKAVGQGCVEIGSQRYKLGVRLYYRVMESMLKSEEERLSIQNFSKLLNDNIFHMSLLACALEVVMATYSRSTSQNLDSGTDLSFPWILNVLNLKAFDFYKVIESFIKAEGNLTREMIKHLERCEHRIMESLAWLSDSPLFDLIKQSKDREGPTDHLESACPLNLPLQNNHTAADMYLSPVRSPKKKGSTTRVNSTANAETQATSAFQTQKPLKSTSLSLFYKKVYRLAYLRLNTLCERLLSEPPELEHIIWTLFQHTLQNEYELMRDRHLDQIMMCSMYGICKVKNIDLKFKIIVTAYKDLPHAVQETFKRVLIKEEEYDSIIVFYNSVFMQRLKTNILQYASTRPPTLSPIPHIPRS

For assay [4], the target named is T4, Rb^P R668C (human, UniProt P06400 380-788, R668C).
T4 construct: also called variant 51
T4 sequence (looked up): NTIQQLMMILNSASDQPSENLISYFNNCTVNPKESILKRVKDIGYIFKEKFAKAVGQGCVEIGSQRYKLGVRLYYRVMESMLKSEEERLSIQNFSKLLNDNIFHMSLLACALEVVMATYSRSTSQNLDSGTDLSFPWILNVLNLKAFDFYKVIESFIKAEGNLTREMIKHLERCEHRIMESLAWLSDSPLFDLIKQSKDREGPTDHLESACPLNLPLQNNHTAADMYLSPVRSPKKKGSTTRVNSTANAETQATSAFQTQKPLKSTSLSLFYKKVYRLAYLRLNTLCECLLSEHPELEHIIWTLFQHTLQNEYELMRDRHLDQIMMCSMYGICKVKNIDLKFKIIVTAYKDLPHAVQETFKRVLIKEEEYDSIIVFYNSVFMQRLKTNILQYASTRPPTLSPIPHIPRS

The target in assay [5] is T5, Rb^P I703F (human, UniProt P06400 380-788, I703F).
T5 construct: also called variant 64
T5 sequence (looked up): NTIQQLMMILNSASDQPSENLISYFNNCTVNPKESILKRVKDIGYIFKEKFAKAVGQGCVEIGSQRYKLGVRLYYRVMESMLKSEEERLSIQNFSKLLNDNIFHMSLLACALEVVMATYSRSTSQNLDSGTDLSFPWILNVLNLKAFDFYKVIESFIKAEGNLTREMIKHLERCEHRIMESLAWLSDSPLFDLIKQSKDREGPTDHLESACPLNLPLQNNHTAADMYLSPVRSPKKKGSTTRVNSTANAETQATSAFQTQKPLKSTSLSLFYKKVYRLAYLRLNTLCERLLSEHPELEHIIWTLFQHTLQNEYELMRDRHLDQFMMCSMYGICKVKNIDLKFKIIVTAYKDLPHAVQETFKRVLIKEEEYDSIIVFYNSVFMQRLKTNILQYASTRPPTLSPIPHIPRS

No end group written: not given here. TMR = tetramethyl rhodamine dye

B1: TMR-E2F1^TD, peptide of the E2F1 transactivation domain (peptide)
peptide: {TMR}-GEGIRDLFDCDFGDLTPLD
notes: also called E2F^TD; source: synthetic peptide, bought: GenScript
With B1, the Kd was found to be 810 nM in assay [1]; 35 nM in assay [2]; 42 nM in assay [3]; 12 nM in assay [4]; 63 nM in assay [5].

B2: TMR-E7^LxCxE, LxCxE peptide of the E7 oncoprotein from HPV (peptide)
peptide: DLYCYEQLN
modifications: also: TMR label, position not given here
notes: source: synthetic peptide, bought: GenScript
B2: the Kd in assay [1] came to 6 nM; in assay [2], 6 nM; in assay [3], 24 nM; in assay [4], 3 nM; in assay [5], 16 nM.

For the origin of these results see article PMC11931385, “Structural and functional analysis of cancer-associated missense variants in the retinoblastoma protein pocket domain” (The Journal of Biological Chemistry, 2025).
